According to the supplement of paper PMC9112550, “Optimization of the antimicrobial peptide Bac7 by deep mutational scanning” (BMC Biology, 2022):

Each sequence was assayed on Escherichia coli TOP10 (assay: shrunken log2 fold change of peptide-encoding DNA abundance (4.5 h post-induction vs induction); higher = less antimicrobial activity (less host growth inhibition)). Details: time post-induction: 4.5 h; library: site-saturation at positions 5, 18, 19, 20.
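Further: peptides expressed intracellularly from a pBAD plasmid library in pooled LB shake-flask culture, induced with 0.3% L-arabinose, DNA abundance read by NGS, three biological replicates, DESeq2 with apeglm shrinkage.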

In order of falling “shrunken log2 fold change” value:
1. RRIRPRPPRLPRPRPRPGSGPRP  1.05
2. RRIRARPPRLPRPRPRPAGEPRP  0.921
3. RRIRRRPPRLPRPRPRPERQPRP  0.522
4. RRIRRRPPRLPRPRPRPHELPRP  0.429
5. RRIRDRPPRLPRPRPRPCVHPRP  0.412
6. RRIRRRPPRLPRPRPRPVLTPRP  0.386
7. RRIRWRPPRLPRPRPRPKRIPRP  0.364
8. RRIRTRPPRLPRPRPRPTADPRP  0.351
9. RRIRLRPPRLPRPRPRPLWPPRP  0.302
10. RRIRYRPPRLPRPRPRPEGAPRP  0.295
11. RRIRDRPPRLPRPRPRPFIWPRP  0.293
12. RRIRQRPPRLPRPRPRPAMVPRP  0.206
13. RRIRARPPRLPRPRPRPSETPRP  0.176
14. RRIRNRPPRLPRPRPRPRWWPRP  0.159
15. RRIRIRPPRLPRPRPRPTPWPRP  0.154
16. RRIRTRPPRLPRPRPRPMTAPRP  0.154
17. RRIRSRPPRLPRPRPRPVVSPRP  0.151
18. RRIRSRPPRLPRPRPRPEVCPRP  0.11
19. RRIRKRPPRLPRPRPRPSCFPRP  0.109
20. RRIRERPPRLPRPRPRPVPWPRP  0.0881
21. RRIRLRPPRLPRPRPRPTAFPRP  0.0454
22. RRIRMRPPRLPRPRPRPIGHPRP  0.0299
23. RRIRDRPPRLPRPRPRPVDNPRP  0.0262
24. RRIRMRPPRLPRPRPRPVHSPRP  0.0125
25. RRIRSRPPRLPRPRPRPWQGPRP  0.0115
26. RRIRYRPPRLPRPRPRPKCGPRP  0.0111
27. RRIRDRPPRLPRPRPRPMPCPRP  0.000981
28. RRIRVRPPRLPRPRPRPNADPRP  -0.00824
29. RRIRSRPPRLPRPRPRPLDSPRP  -0.0139
30. RRIRNRPPRLPRPRPRPGRIPRP  -0.0181
31. RRIRYRPPRLPRPRPRPASSPRP  -0.0244
32. RRIRLRPPRLPRPRPRPKWAPRP  -0.0391
33. RRIRWRPPRLPRPRPRPNIEPRP  -0.0429
34. RRIRVRPPRLPRPRPRPTWKPRP  -0.0442
35. RRIRLRPPRLPRPRPRPHKAPRP  -0.0451
36. RRIRMRPPRLPRPRPRPHGGPRP  -0.0492
37. RRIRHRPPRLPRPRPRPSEIPRP  -0.0493
38. RRIRWRPPRLPRPRPRPIVVPRP  -0.0496
39. RRIRKRPPRLPRPRPRPFNQPRP  -0.0503
40. RRIRTRPPRLPRPRPRPECYPRP  -0.0535
41. RRIRPRPPRLPRPRPRPDHFPRP  -0.0536
42. RRIRDRPPRLPRPRPRPFMKPRP  -0.0698
43. RRIRLRPPRLPRPRPRPYLQPRP  -0.0746
44. RRIRQRPPRLPRPRPRPWNPPRP  -0.0759
45. RRIRMRPPRLPRPRPRPMSDPRP  -0.095
46. RRIRMRPPRLPRPRPRPHWTPRP  -0.106
47. RRIRERPPRLPRPRPRPDQNPRP  -0.108
48. RRIRYRPPRLPRPRPRPYLYPRP  -0.109
49. RRIRQRPPRLPRPRPRPGKQPRP  -0.117
50. RRIRTRPPRLPRPRPRPNGEPRP  -0.12
51. RRIRVRPPRLPRPRPRPSPEPRP  -0.142
52. RRIRHRPPRLPRPRPRPMGKPRP  -0.189
53. RRIRWRPPRLPRPRPRPVYQPRP  -0.196
54. RRIRMRPPRLPRPRPRPTYVPRP  -0.197
55. RRIRQRPPRLPRPRPRPFQMPRP  -0.214
56. RRIRMRPPRLPRPRPRPLYMPRP  -0.222
57. RRIRIRPPRLPRPRPRPRNVPRP  -0.247
58. RRIRMRPPRLPRPRPRPYGLPRP  -0.248
59. RRIRYRPPRLPRPRPRPEFLPRP  -0.252
60. RRIRDRPPRLPRPRPRPLTIPRP  -0.257
61. RRIRSRPPRLPRPRPRPCYPPRP  -0.264
62. RRIRWRPPRLPRPRPRPNMPPRP  -0.268
63. RRIRSRPPRLPRPRPRPHYCPRP  -0.289
64. RRIRRRPPRLPRPRPRPVNYPRP  -0.291
65. RRIRHRPPRLPRPRPRPGMYPRP  -0.298
66. RRIRSRPPRLPRPRPRPLVMPRP  -0.316
67. RRIRNRPPRLPRPRPRPSWEPRP  -0.32
68. RRIRGRPPRLPRPRPRPYCGPRP  -0.349
69. RRIRWRPPRLPRPRPRPAYHPRP  -0.361
70. RRIRYRPPRLPRPRPRPAWNPRP  -0.374
71. RRIRRRPPRLPRPRPRPQYGPRP  -0.409
72. RRIRQRPPRLPRPRPRPSYIPRP  -0.417
73. RRIRDRPPRLPRPRPRPSDHPRP  -0.422
74. RRIRFRPPRLPRPRPRPYMTPRP  -0.49
75. RRIRHRPPRLPRPRPRPWIMPRP  -0.597
